We go through one substance from paper PMC3324284.

The term Kd denotes the concentration at which binding is half-saturated. Usually stoichiometry N stands for a count of units in the complex or per binding partner.

“And” between values parts separate entries of the source, which are not always exact repeats. Identical values can stand only once. Like-named read-outs stand apart in the source and are kept apart here.

In assay [1] the target is Mga4-His6 (Group A Streptococcus (Streptococcus pyogenes), M4 serotype strain GA40634). The assay is described as follows: AUC.
Assay [2] has the same target. The assay is described as follows: SEC. (SEC sorts molecules by how far they enter the pores of the column.)
The target is the same in assay [3]. The assay is described as follows: AUC. This is another data set of the same source.

With Mga4-His6 (natural protein), the Kd was 6.13 µM in assay [1] and 9.41 µM in assay [3]. In assay [2], the stoichiometry N is 2 and 4 and 6.
